# Reference: publication PMC7347944 (Communications Biology, 2020)
# B1: full-length huPrP(23−230) (natural protein)
# chain: not shown
# B2: huPrP(23−111) (domain or fragment)
# chain: KKRPKPGGWNTGGSRYPGQGSPGGNRYPPQGGGGWGQPHGGGWGQPHGGGWGQPHGGGWGQPHGGGWGQGGGTHSQWNKPSKPKTNMKH
# B3: huPrP(23−144) (domain or fragment)
# chain: KKRPKPGGWNTGGSRYPGQGSPGGNRYPPQGGGGWGQPHGGGWGQPHGGGWGQPHGGGWGQPHGGGWGQGGGTHSQWNKPSKPKTNMKHMAGAAAAGAVVGGLGGYMLGSAMSRPIIHFGSD
# Molecular target: T1, amyloid-β oligomers (UniProt P05067 672-713)
# T1 construct: also called AβO; Aβ oligomers
# Experiment: co-sedimentation
# Details: both partners purified
row,Binder,binding result
1,B1,binds
2,B2,binds
3,B3,binds
